Data as given in patent publication US5580955A, “Fragments of neurofibromin (NF1) and method to reverse activated ras induced malignant transformation in mammalian cells” (Ludwig Institute for Cancer Research, priority 1995, dated 1996).
Entries after “also recorded” stand apart in the source; their conditions may differ. One block for each molecule: values may come before it.

Experiments:
c-HaRas protein = assay: Ras GTPase stimulating activity: hydrolysis of [gamma-32P] GTP bound to c-HaRas protein, by GST fusion NF1 mutants; assay type: biochemical, murine; details: for Activation (fold), Ras GTPase activation: 20 ug/ml NF1 mutants; for Activation (fold), Ras GTPase activation / EC50, concentration required for 50% hydrolysis of GTP bound Ras: 25° C., 20 minutes
Description: N- and C- terminal deletion mutants were constructed by subcloning the corresponding PCR DNA fragments into the bacterial expression vector pGEX-2TH, as described in Maruta et al., supra. FIG. 4 sets forth the DNA fragments inserted into the expression vector. The number following NF of each mutant indicates the total amino acid residues included. The DNA fragments inserted include the DNA for human type I NF357, human type II NF1-GRD (amino acid residues 1355 to 1531 in addition to the insert of 21 amino acids) and murine c-HaRas (residues 1-189). The type II-specific insert of 21 amino acids is indicated by the number 21 above a triangle following codon 1371. This 21 amino acid insert is set forth in SEQ ID NO: 2. The solid rectangle indicates the GAP active center of 56 amino acids, whereas the shaded rectangle indicates a supporting domain of 22 amino acids.
The expression vectors were transfected into E.coli and the protein expressed as GST fusion proteins. The fusion proteins were thereafter purified from E.coli as glutathione S-transfeRase fusion proteins and affinity-purified on a glutathione (GSH)-agarose column, as described in Maruta, et al., supra.
The purified proteins were then screened for Ras GTPase stimulating activity. The assay was carried out for each of the NF357 deletion mutants.
The hydrolysis of [gamma-^32 P] GTP bound to c-HaRas protein was determined by incubating with bound protein at 25° C. for 20 minutes in the presence or absence of each NF1 mutant preparation in 100 ul of a buffer containing 50 mMTris-HCl, pH 7.5, 15 mMMgCl2, 2.5 mM EDTA, 3 mM ATP, 1 mM dithiothreitol (DTT) and 0.5 mg/ml bovine serum albumin (BSA), then precipitating the unhydrolyzed [gamma-32P] GTP with charcoal, and finally measuring the radioactivity of the [gamma-32P] inorganic phosphate in the supernatant, as described previously, Maruta et al., supra. Protein concentrations were determined by the Bradford method with BSA as a standard.

[1] = stability of GAP activity to freezing/thawing or storage; assay type: physicochemical; details: freezing/thawing or storage at 4° C. for 6 months
[2] = test system: V-HaRas transformed NIH/3T3 cells; assay: soft agar colony (SAC) formation by V-HaRas transformed NIH/3T3 cells transfected with NF1 fragment plasmids; assay type: cell-based
Procedure: The transfectants were then cloned in the presence of a neomycin analogue, i.e., G418 at 400 ug/ml. The transfectants were initially screened for viability in the G418 medium, following Maruta et al., supra., and Nur-E.-Kamal et al., supra.
After the transfectants were screened for viability, the ability of the parental clone and each surviving transfectant to form soft agar colonies (SAC) were then examined by incubating 1000 cells per plate at 37° C. for three weeks under standard culture conditions, as described in Maruta et al., supra.

[3] = test system: V-HaRas transformed NIH/3T3 cells; assay: morphology of V-HaRas transformed NIH/3T3 cells overexpressing NF1 fragments; assay type: cell-based; details: liquid culture, compared with parental V-HaRas transformed cells

Activation (fold), Ras GTPase activation (c-HaRas protein): 6 fold
EC50, concentration required for 50% hydrolysis of GTP bound Ras (c-HaRas protein): 25 µg/mL
B1: NF78: NF1 fragment, amino acid residues 1441 to 1518 (protein)
chain: RPFNDFVKSNFDAARRFFLDIASDCPTSDAVNHSLSFISDGNVLALHRLLWNNQEKIGQYLSSNRDHKAVGRRPFDKM
Ras GTPase stimulation (in words) (c-HaRas protein): still able to stimulate Ras GTPase activity
reduction of GTPase activity relative to NF91 (c-HaRas protein; deletion of the C-terminal 13 amino acids from NF91): 2.5 fold
GAP activity after treatment/storage [1]: not significantly affected

efficiency of Ras GTPase stimulation, times less efficient compared to NF342 / NF357 (c-HaRas protein): twenty
Activation (fold), Ras GTPase activation (c-HaRas protein): 10 fold
EC50, concentration required for 50% hydrolysis of GTP bound Ras (c-HaRas protein): 10 µg/mL
B2: NF91: NF1 fragment, amino acid residues 1441 to 1531; GST fusion in Table II, expressed from pMV7 plasmid in cells (protein, UniProt P21359 1441-1531, looked up, fragment)
chain: LMSKILQSIANHVLFTKEEHMRPFNDFVKSNFDAARRFFLDIASDCPTSDAVNHSLSFISDGNVLALHRLLWNNQEKIGQYLSSNRDHKAV
modifications: GST fusion
SAC (%), relative soft agar colony forming ability ([2]; clones with relatively high (H) mRNA level, non-transfected clone #0 = 100): 0%
Colonies/10^3 cells (number of colonies found in soft agar) ([2]; clones with relatively high (H) steady-state mRNA level, 1000 cells per plate, 37° C., three weeks): 0 Colonies/10^3 cells
ability to form soft agar colonies (in words) ([2]; compared with non-transfected parental V-HaRas transformed cells): no longer able to form any soft agar colonies
Ras GTPase stimulation (in words) (c-HaRas protein): still stimulated Ras GTPase activity; also recorded: still able to stimulate normal Ras GTPase activity
cell morphology [3]: morphologically flat
cell morphology ([3]; listed as NF91 (Sense)): Flat

B3: GAP1C: the 709-1044 amino acid C-terminal GTPase activating domain of GAP1 (protein, UniProt P20936 709-1044, looked up, fragment)
chain: RARYSMEKIMPEEEYSEFKELILQKELHVVYALSHVCGQDRTLLASILLRIFLHEKLESLLLCTLNDREISMEDEATTLFRATTLASTLMEQYMKATATQFVHHALKDSILKIMESKQSCELSPSKLEKNEDVNTNLTHLLNILSELVEKIFMASEILPPTLRYIYGCLQKSVQHKWPTNTTMRTRVVSGFVFLRLICPAILNPRMFNIISDSPSPIAARTLILVAKSVQNLANLVEFGAKEPYMEGVNPFIKSNKHRMIMFLDELGNVPELPDTTEHSRTDLSRDLAALHEICVAHSDELRTLSNERGAQQHVLKKLLAITELLQQKQNQYTKTN
GAP activity after treatment/storage [1]: completely inactivated
